In patent US20200283528A1:
Numbering of substitutions follows the chain as printed.

B1: PRO1479 (scDb-scFv: 37-20-B03 sc09.1 / 38-02-A04 sc013 / 19-01-H04 sc03) (protein, from a related filing)
chain: DIQMTQSPASLSASVGDRVTITCQASQSIGTYLAWYQQKPGKPPKLLIYRAFILASGVPSRFSGSGSGTDFTLTISSLQPEDFATYYCQSNFYSDSTTIGPNAFGTGTKVTVLGGGGGSEVQLVESGGGLVQPGGSLRLSCAASGFSFSNSYWICWVRQAPGKCLEWIGCTFVGSSDSTYYANWAKGRFTISRDNSKNTVYLQMNSLRAEDTAVYYCARHPSDAVYGYANNLWGQGTLVTVSSGGGGSGGGGSGGGGSGGGGSIQMTQSPSSLSASVGDRVTITCQASQSINNVLAWYQQKPGKAPKLLIYRASTLASGVPSRFSGSGSGTDFTLTISSLQPEDFATYYCQSSYGNYGDFGCGTKVTVLGGGGGSEVQLVESGGGLVQPGGSLRLSCAASGFSFNSDYWIYWVRQAPGKGLEWIASIYGGSSGNTQYASWAQGRFTISRDNSKNTVYLQMNSLRAEDTAVYFCARGYVDYGGATDLWGQGTLVTVSSGGGGSGGGGSIQMTQSPSSLSASVGDRVTITCQSSESVYSNNQLSWYQQKPGQPPKLLIYDASDLASGVPSRFSGSGSGTDFTLTISSLQPEDFATYYCAGGFSSSSDTAFGGGTKLTVLGGGGGSGGGGSGGGGSGGGGSEVQLVESGGGLVQPGGSLRLSCAASGFSLSSNAMGWVRQAPGKGLEYIGIISVGGFTYYASWAKGRFTISRDNSKNTVYLQMNSLRAEDTATYFCARDRHGGDSSGAFYLWGQGTLVTVSS
B2: PRO1476 (scDb-scFv: 33-03-G02 sc03 / 38-02-A04 sc013 / 19-01-H04 sc03) (protein, from a related filing)
chain: DIQMTQSPSSLSASVGDRVTITCQASQSINNVLAWYQQKPGKAPKLLIYRASTLASGVPSRFSGSGSGTDFTLTISSLQPEDFATYYCQSSYGNYGDFGCGTKVTVLGGGGGSQSQLQESGPGLVKPSETLSLTCKASGFSFSSGYDMCWVRQPPGKGLEWIACVVAGSVDITYYASWAKGRVTISKDSSKNQVSLKLSSVTAADTAVYFCARKDAYSDAFNLWGQGTLVTVSSGGGGSGGGGSGGGGSGGGGSFQLTQSPSSLSASVGDRVTITCQASQSINDYLAWYQQKPGKSPKLLIYKASTLASGVPSRFSGSGSGTDFTLTISSLQPEDFATYYCQQGYIITDIDNVFGTGTKVTVLGGGGGSEVQLVESGGGLVQPGGSLRLSCAASGFSFSNSYWICWVRQAPGKCLEWIGCTFVGSSDSTYYANWAKGRFTISRDNSKNTVYLQMNSLRAEDTAVYYCARHPSDAVYGYANNLWGQGTLVTVSSGGGGSGGGGSIQMTQSPSSLSASVGDRVTITCQSSESVYSNNQLSWYQQKPGQPPKLLIYDASDLASGVPSRFSGSGSGTDFTLTISSLQPEDFATYYCAGGFSSSSDTAFGGGTKLTVLGGGGGSGGGGSGGGGSGGGGSEVQLVESGGGLVQPGGSLRLSCAASGFSLSSNAMGWVRQAPGKGLEYIGIISVGGFTYYASWAKGRFTISRDNSKNTVYLQMNSLRAEDTATYFCARDRHGGDSSGAFYLWGQGTLVTVSS
B3: PRO1432 (scDb-scFv: 33-03-G02 sc18 / 38-02-A04 sc013 / 19-01-H04 sc03) (protein, from a related filing)
chain: B2 chain with S115V, F210Y, F255I, L257M, S296A
B4: PRO1482 (scDb-scFv: 37-20-B03 sc09.1 / 38-02-A04 sc013 / 19-01-H04 sc03) (protein, from a related filing)
chain: DIQMTQSPSSLSASVGDRVTITCQASQSINNVLAWYQQKPGKAPKLLIYRASTLASGVPSRFSGSGSGTDFTLTISSLQPEDFATYYCQSSYGNYGDFGCGTKVTVLGGGGGSEVQLVESGGGLVQPGGSLRLSCAASGFSFNSDYWIYWVRQAPGKGLEWIASIYGGSSGNTQYASWAQGRFTISRDNSKNTVYLQMNSLRAEDTAVYFCARGYVDYGGATDLWGQGTLVTVSSGGGGSGGGGSGGGGSGGGGSIQMTQSPASLSASVGDRVTITCQASQSIGTYLAWYQQKPGKPPKLLIYRAFILASGVPSRFSGSGSGTDFTLTISSLQPEDFATYYCQSNFYSDSTTIGPNAFGTGTKVTVLGGGGGSEVQLVESGGGLVQPGGSLRLSCAASGFSFSNSYWICWVRQAPGKCLEWIGCTFVGSSDSTYYANWAKGRFTISRDNSKNTVYLQMNSLRAEDTAVYYCARHPSDAVYGYANNLWGQGTLVTVSSGGGGSGGGGSIQMTQSPSSLSASVGDRVTITCQSSESVYSNNQLSWYQQKPGQPPKLLIYDASDLASGVPSRFSGSGSGTDFTLTISSLQPEDFATYYCAGGFSSSSDTAFGGGTKLTVLGGGGGSGGGGSGGGGSGGGGSEVQLVESGGGLVQPGGSLRLSCAASGFSLSSNAMGWVRQAPGKGLEYIGIISVGGFTYYASWAKGRFTISRDNSKNTVYLQMNSLRAEDTATYFCARDRHGGDSSGAFYLWGQGTLVTVSS
B5: PRO1431 (scDb-scFv: 33-03-G02 sc18 / 38-02-A04 sc013 / 19-01-H04 sc03) (protein, from a related filing)
chain: DIQMTQSPSSLSASVGDRVTITCQASQSINDYLAWYQQKPGKAPKLLIYKASTLASGVPSRFSGSGSGTDFTLTISSLQPEDFATYYCQQGYIITDIDNVFGTGTKVTVLGGGGGSEVQLVESGGGLVQPGGSLRLSCAASGFSFSNSYWICWVRQAPGKCLEWIGCTFVGSSDSTYYANWAKGRFTISRDNSKNTVYLQMNSLRAEDTAVYYCARHPSDAVYGYANNLWGQGTLVTVSSGGGGSGGGGSGGGGSGGGGSIQMTQSPSSLSASVGDRVTITCQASQSINNVLAWYQQKPGKAPKLLIYRASTLASGVPSRFSGSGSGTDFTLTISSLQPEDFATYYCQSSYGNYGDFGCGTKVTVLGGGGGSQVQLQESGPGLVKPSETLSLTCKASGFSFSSGYDMCWVRQPPGKGLEWIACVVAGSVDITYYASWAKGRVTISKDSSKNQVSLKLSSVTAADTAVYYCARKDAYSDAFNLWGQGTLVTVSSGGGGSGGGGSIQMTQSPSSLSASVGDRVTITCQSSESVYSNNQLSWYQQKPGQPPKLLIYDASDLASGVPSRFSGSGSGTDFTLTISSLQPEDFATYYCAGGFSSSSDTAFGGGTKLTVLGGGGGSGGGGSGGGGSGGGGSEVQLVESGGGLVQPGGSLRLSCAASGFSLSSNAMGWVRQAPGKGLEYIGIISVGGFTYYASWAKGRFTISRDNSKNTVYLQMNSLRAEDTATYFCARDRHGGDSSGAFYLWGQGTLVTVSS
B6: PRO1473 (scDb-scFv: 33-03-G02 sc03 / 38-02-A04 sc013 / 19-01-H04 sc03) (protein, from a related filing)
chain: B5 chain with I2F, M4L, A43S, V374S, Y469F
B7: PRO1430 (scDb-scFv: 37-20-B03 sc01 / 38-02-A04 sc013 / 19-01-H04 sc03) (protein, from a related filing)
chain: DIQMTQSPSSLSASVGDRVTITCQASQSIGTYLAWYQQKPGKAPKLLIYRAFILASGVPSRFSGSGSGTDFTLTISSLQPEDFATYYCQSNFYSDSTTIGPNAFGTGTKVTVLGGGGGSEVQLVESGGGLVQPGGSLRLSCAASGFSFSNSYWICWVRQAPGKCLEWIGCTFVGSSDSTYYANWAKGRFTISRDNSKNTVYLQMNSLRAEDTAVYYCARHPSDAVYGYANNLWGQGTLVTVSSGGGGSGGGGSGGGGSGGGGSIQMTQSPSSLSASVGDRVTITCQASQSINNVLAWYQQKPGKAPKLLIYRASTLASGVPSRFSGSGSGTDFTLTISSLQPEDFATYYCQSSYGNYGDFGCGTKVTVLGGGGGSQVQLQESGPGLVKPSETLSLTCKVSGFSFNSDYWIYWIRQPPGKGLEWIGSIYGGSSGNTQYASWAQGRVTISVDSSKNQFSLKLSSVTAADTAVYYCARGYVDYGGATDLWGQGTLVTVSSGGGGSGGGGSIQMTQSPSSLSASVGDRVTITCQSSESVYSNNQLSWYQQKPGQPPKLLIYDASDLASGVPSRFSGSGSGTDFTLTISSLQPEDFATYYCAGGFSSSSDTAFGGGTKLTVLGGGGGSGGGGSGGGGSGGGGSEVQLVESGGGLVQPGGSLRLSCAASGFSLSSNAMGWVRQAPGKGLEYIGIISVGGFTYYASWAKGRFTISRDNSKNTVYLQMNSLRAEDTATYFCARDRHGGDSSGAFYLWGQGTLVTVSS

These binders were tested against human PDL1 expressed on cells (human) (UniProt Q9NZQ7) (assay: cell-based or functional assay).

NF-AT potency assay IC50 (with HSA) [ng/mL]	NF-AT potency assay rel. IC50 (IC50, Avelumab/IC50, test molecule) (with HSA)	Binder
50.4	1.04	B1
53.5	0.66	B2
18.5	1.98	B3
54.8	0.68	B4
9.83	3.73	B5
35.2	1.11	B6
16.2	1.45	B7

The binders below were run against Fc tagged human PDL1 (human) (UniProt Q9NZQ7) (assay: SPR Biacore T200; PDL1-Fc captured; molecule 0.12-90 nM).

Kd [pM]	koff [s⁻¹]	kon [M⁻¹ s⁻¹]	Binder
9.2	3.9e-05	4.2e+06	B1
9	3.1e-05	3.4e+06	B2
11	4.4e-05	4.2e+06	B3
9.8	3.3e-05	3.4e+06	B4
14	4.5e-05	3.3e+06	B5
8.2	2.9e-05	3.6e+06	B6
4.5	2.4e-05	5.3e+06	B7

What follows are binders tested against human CD137-Fc chimeric protein (human) (UniProt Q07011) (assay: SPR Biacore T200; CD137-Fc captured; molecule as analyte).

Kd [pM]	koff [s⁻¹]	kon [M⁻¹ s⁻¹]	Binder
1700	0.00054	330000	B1
1100	0.00037	350000	B2
750	0.00045	600000	B3
1100	0.00036	320000	B4
1700	0.00075	450000	B5
2000	0.0006	310000	B6
1500	0.00071	460000	B7

These binders were tested against human PDL1 (recombinant, soluble) (human) (UniProt Q9NZQ7) (assay: PDL1/PD-1 competition ELISA; PD-1 coated, biotinylated PDL1 1 ng/ml).

IC50 [ng/mL]	rel. IC50 (IC50, Avelumab/IC50, test molecule)	Binder
2.65	0.86	B1
2.84	0.8	B2
3.26	0.43	B3
1.78	1.24	B4
2.75	0.51	B5
4.14	0.56	B6
1.92	0.73	B7

The binders below were run against human PDL1 (recombinant, soluble) (human) (UniProt Q9NZQ7) (assay: PDL1/B7-1 competition ELISA; B7-1 coated, biotinylated PDL1 40 ng/ml).

IC50 [ng/mL]	rel. IC50 (IC50, Avelumab/IC50, test molecule)	Binder
10.7	1.38	B1
9.49	1.1	B2
2.83	0.99	B3
8.18	1.51	B4
3.31	0.84	B5
8.89	1.49	B6
2.42	1.15	B7
